In publication PMC7820495 one finds response data, which are given here for one variant.

The chains are these.
B1: VCP^WT-sfGFP (Drosophila VCP tagged with sfGFP at the endogenous locus) [Drosophila] / wild-type VCP (endogenous, untagged, Drosophila) [Drosophila (endogenous in flies)] (parent)
chain 1: MADSKGEDLATAILKRKDRPNRLIVEEAQNDDNSVVSLSQAKMDELQLFRGDTVILKGKRRKETVCIVLSDDTCPDEKIRMNRVVRNNLCVHLSDVVSVQSCPDVKYGKRVRILPIDESTEGVTGNLFEIYLKPYFLEAYRPIHMGDNFIVRAAMRPIEFKVVLTDPEPYCIVAPETVIFCDGDPIKREEEEESLNAVGYDDIGGCRKQLAQIKEMVELPLRHPSLFKAIGVKPPRGILMYGPPGTGKTLIARAVANETGAFFFLINGPEIMSKLAGESESNLRKAFEEAEKNSPAIIFIDEIDAIAPKRDKTHGEVERRIVSQLLTLMDGMKKSSHLIVMAATNRPNSIDPALRRFGRFDREIDIGIPDATGRLEVLRIHTKNMKLHDDVDLEQIAAESHGHVGADLASLCSEAALQQIREKMDLIDLEDDKIDAEVLASLAVTMENFRYAMTKSSPSALRETVVEVPNTTWTDIGGLESVKKELQELVQYPVEHPDKFLKFGMQPSRGVLFYGPPGCGKTLLAKAIANECQANFISVKGPELLTMWFGESEANVRDIFDKARSAAPCVLFFDELDSIAKARGGNVGDAGGAADRVINQILTEMDGMGAKKNVFIIGATNRPDIIDPAILRPGRLDQLIYIPLPDDKSREAILKANLRKSPLAKEVDLTYIAKVTQGFSGADLTEICQRACKLAIRQAIEAEIRREKERAENQNSAMDMDEDDPVPEITSAHFEEAMKFARRSVSDNDIRKYEMFAQTLQQSRGFGQNFRFPGQTGNTSGSGNNLPVNSPGDNGDDDLYS
chain 2: B1 chain 1

The variants in this experiment derive from B1. Put plainly: co-immunoprecipitation (IP: GFP, IB: VCP), band quantification. The conditions noted are these: with wild-type VCP (endogenous, untagged, Drosophila) [Drosophila (endogenous in flies)]; heterozygous flies; n = 3 independent experiments; read off a plot.
For the variant chain 1 P134L, the response is 0.93.
